Experimental data reported in the DeepSol protein solubility set.

Experiment: soluble on expression in E. coli; label from the status in PepcDB or PDB records

Sequence	soluble on expression in E. coli
MNLPQNIRYRRYQDWTEEEIKSIKTNVALSPWHTTYHIEPKTGLLNDPNGFSYFNGKFNLFYQNWPFGAAHGLKSWIHTESEDLVHFKETGTVLYPDTSHDSHGAYSGSAYEIGDQLFLFYTGNVRDENWVRHPLQIGAFMDKKGNIQKFTDVLIKQPNDVTEHFRDPQIFNYKGQFYAIVGAQSLDKKGFIKLYKAVDNDIKNWQEVGNLDFGGSKSEYMIECPNLVFINEQPVLIYSPQGLSKSELDYHNIYPNTYKVCQSFDTEKPALVDASEIQNLDFGFECYATQAFNAPDGRVYAVSWIGLPDIDYPSDSYDYQGALSLVKELSLKHGKLYQYPVEAVRSLRSEKEAVTYKPETNNTYELELTFDSSSVNELLLFADNKGNGLAITVDTKMGTILIDRSKAGEQYALEFGSQRSCSIQAKETVVNIFVDKSIFEIFINKGEKVFTGRVFPNDKQTGIVIKSGKPSGNYYELKYLEHHHHHH	soluble
MNLSFKINSMYICVHNMDRAINFYENLFNCKVTGKDEIYSVFDINGFRYGLFANKKTGEKKIWGNNCLPSFQVNDIDLILEKLKELNCPIVFPLTNIGKNKVLEFTDCEGNAIEITSPIKLEHHHHHH	not soluble
MNMANVKIKIRDGLIDRLRNMSGITSDEAFARTIGTSRSTLVDVKTGEREPSLAFAIGIAQAFGLGLSEIVTWETETTAA	not soluble
MNMPLMIDLTNKNVVIVGGGVVASRRAQTLNQYVEHMTVISPTITEKLQNMVDNGVVIWKEKEFEPSDIVDAYLVIAATNEPRVNEAVKKALPEHALFNNVGDASNGNVVFPSALHRDKLTISVSTDGASPKLTKSIMAELEALYPPSYSSYIDFLYTCRQKIKVLDITYNEKQQLLSQIVSQEYLNHDKQAQFLAWLDVR	not soluble
MNMTKNAFQFGIEPVRITDTDNIQVNEGLPTNADPQVYALQLAKTVKAMLNGVLKDAQDNIPFPVEVLPTRNSLPTPIIAHTLADRSVLVPVRGGKRPEVVTAPSGTEITVEPIEQAILVSHQTKLWDQKSTTGFTQGTLQQDALNICDNVIRTINSKMVDVLESSKLLKTVELPALTGSLTAKADAIMDALYENTESSFGSEVSDYGIIAHESHLKALSRLAAKQGFGGEDAIVDMLGTDVAYYNGEDRGVFMMAKRFTALSFGCFRHDGESITVVLSRDGDSQSHDLEILGKVFVVAEAATTIKMGTGSATAVLPVVKRLSFTKEAN	not soluble
MNMYSMPGYFQNMPTIGKELVNPNPENEQEIKAVESDIHESIKKALDAGITSEEKLNERGQLSAMQRINALIDPGTWCPLNSLFNPENNKFGTTNIVNGLGRVDGKWVYIVASDNKKMAGAWVPGQAENLIRCSDAAKMMHLPLIYLLNCSGVEFPNQDKVYPNRRGGGTPFFRNSELNQLGIPVIVGIYGTNPAGGGYHSISPTILIAHQDANMAVGGAGILSGMNPKGYIDDEAAEQIIAAQIENSKLKVPAPGSVPIHYDETGFFREVYQNDLGVIDGIKKYISYLPAYNLEFFRVDTPKAPQLPAEDLYSIIPMNQKRPYDIYEVIARLFDNSEFSEYKKGYGPEMVTGLAKVNGLLVGVIANVQGLLMNYPEYKQNSVGIGGKLYRQGLIKMNEFVTLCARDRIPLIWLQDTTGIDVGDEAEKAELLGLGQSLIYSIENSKLPSLEITIRKASAAAHYVLGGPQGNNTNVFSIGTGACEYYVMPGETAANAMYSRKLVKAKKAGEDLQPIIGKMNDMIQMYTDKSRPKYCTEKGMVDEIVDMTEVRPYIQAFTEAAYQNPQSICPMHQMLTPRSTREFETFGK	soluble
MNNIWWQTKGQGNVHLVLLHGWGLNAEVWRCIDEELSSHFTLHLVDLPGFGRSRGFGALSLADMAEAVLQQAPDKAIWLGWSLGGLVASQIALTHPERVQALVTVASSPCFSARDEWPGIKPDVLAGFQQQLSDDFQRTVERFLALQTMGTETARQDARALKKTVLALPMPEVDVLNGGLEILKTVDLRQPLQNVSMPFLRLYGYLDGLVPRKVVPMLDKLWPHSESYIFAKAAHAPFISHPAEFCHLLVALKQRV	soluble
MNNKLIYRSVRFATHNSQLLLPPLVLYRRILRQHKLLPGPQREMGDQYVRNEFKLHKDIDNPLHIVGFLASWQDYLHMISNGKWKDATLSSETLEKLSPEQTVQLYELMKETQKLHQDNEIESSKDVKRNNKD	not soluble
MNNSIPERFIFQCALFKNLEREVFMTHGYVDSHIIDQALRLRLKDETSVILSDLYLQILQYIEMHKTTLTDIIINDRESVLSAAALEHHHHHH	not soluble
MNPGGILMTTDIYFSHNNPHDPYAHHTTELNRDTHHLWVVLTTDSDDFDADSFTTEVIRITGYSRHEVNNGLNAMAAMTNLPHLRAIQERYYFLSIRYLASIMIAVAKADPTLWEELDLRITDALTPVTAGEVMIQSSTLSKRIAAWIKELDPEPTPEPIPKEDYVHVHTTDEATYVRIKISGPNRLILNDIITQLKDTDTEDSLPEALMAFLMEKIQLKITKYLFTPHKHPEQVWSPDYGDIGPEAYANATLVCAKDLDEVAGATEKSYTPSEKMKALIRARDGHCRFPGCCVPASKCQVDHIIPWAEGGPTAAWNLQLLCQRHHNMKTDGRFTADANGLAEIRWIGPMDVPAVTRPTGPLVKAMPRGIWGQVLRDRIQARFERIRVRALNKEDLEHHHHHH	not soluble
MNPIPADVAAVVLAGGVGRRFGRPKALAMMDGISLVERAVEALSSGPADVYVSVSPALERPVARLVGSRRVIVDLVEQAPCEGPLRAFLTAASTLVSYSNLVFMPVDAPWASWRDLEPIYNASKAIGSGASYFSGEGIVHPLFLAARRKSLLTAAWTACWGRAEKRASAILRSLDPLILLGSSETRSPLALATVNTPQDLWRPSRVPAPAEGYILLEGHSILYKISSTMNSYYSALALEAEYKLYRRLGLLRLASHVLKDAAALNVSTSLIQQESMAGGLGLEHHHHHH	not soluble
MNPIQHILDTYPLIVLDGAMATELERKGCNLNDSLWSAKILMEEPELIKQVHTDYFAAGADCAITASYQSTFEGFAARGLSEAEARRLIELSVSIAAEARDEFWSLEENRLNRPKPIIAASIGPYGAYLADGSEYRGNYAISEDELIEFHRPRMKALIEAGADVLACETIPCLTEAKAIVRLLKEFPETYAWISFSAKDGLHISDGTPAADCASWLDEHRQIAALGINCTPLQHIPSLIEELKKNTSKPIIVYPNSGEQYDPETKTWNGAACAESYGASARTWHEKGARLIGGCCRTKPENIQEIAAWARSLKTT	soluble
MNPVAFIREKREGKKHRREDLEAFLLGYLRDEVPDYQVSAWLMAAFLRGLDPEETLWLTETMARSGKVLDLSGLPHPVDKHSSGGVGDKVSLVVGPILAASGCTFAKMSGRGLAHTGGTIDKLESVPGWRGEMTEAEFLERARRVGLVIAAQSPDLAPLDGKLYALRDVTATVESVPLIASSIMSKKLAAGARSIVLDVKVGRGAFMKTLEEARLLAKTMVAIGQGAGRRVRALLTSMEAPLGRAVGNAIEVREAIEALKGEGPGDLLEVALALAEEALRLEGLDPALARKALEGGAALEKFRAFLEAQGGDPRAVEDFSLLPLAEEHPLRAEREGVVREVDAYKVGLAVLALGGGRKRKGEPIDHGVGVYLLKKPGDRVERGEALALVYHRRRGLEEALGHLREAYALGEEAHPAPLVLEAI	soluble
MNQELKLRPLEREDLKFVHELNNNAHIMSYWFEEPYEAFVELQDLYDKHIHDQSERRFIVEKDNEMVGLVELVEIDYIHRRTEFQIIIDPNYQGYGYAVEATRLAMDYAFAVLNMHKIYLVVDKENEKAVHVYKKVGFMVEGELIDEFFVDGNYHNAIRMCMFQKQYFENK	not soluble
MNQKAVILDEQAIRRALTRIAHEMIERNKGMNNCILVGIKTRGIYLAKRLAERIEQIEGNPVTVGEIDITLYRDDLSKKTSNDEPLVKGADIPVDITDQKVILVDDVLYTGRTVRAGMDALVDVGRPSSIQLAVLVDRGHRELPIRADYIGKNIPTSKSEKVMVQLDEVDQNDLVAIYENE	soluble
MNQLNGQQLNDIILVLQNFTHSTLKKDLISLNAFKKAELTCGILRIELSMPFVWQTGFEALQAEVEQQLKQITGASGVKWVLNYQIATLKRANNHPAVNGVKNIIAVTSGKGGVGKSTTSINLALALQAQGAKVGILDADIYGPSIPHMLGAQDQRPTSPDNRHITPIEAYGIQSNSIGYLMAEDNATIWRGPMASSALSQLLNETWWTDLDYLVIDMPPGTGDIQLTLSQQIPVTGAVVVTTPQDIALLDAIKGIAMFQKVAVPVLGVIENMSVHICQNCGHQEAIFGTGGASKVAEKYNTQLLGQLPLHIRLRQDLDAGTPTVVADPTHEISQAYLALAAKVAAELYWQGTVIPSEIMIREVK	not soluble
MNRARKTSSCGCFRSAFCLLKPSTSSASEEHGDSDKKLLSVQLITPRDEEEQTSSRSIKIPPLDLNGLDCKKNAVAARRAGRRRTSEGGGVRGKGHFAEVVLDGLQRPVSLLRNQKEKSNSDDNCQEKEPTSPSSSRKKSYDNAPALESLEKLRYILHQLNSGQLPLEDLKRNIEYAALVLETAYMDETRRICDEDDDLAEVTPETVPDEVREWLAATFTRQNAGKKRDKPKFKSVANAIRTGIFFEKLFRKQQVVQCPIPPEIAELMKEVCTWSFSPFQLNEVSEGHALKYVGFELFNRYGFMDRFKVPLTALENYLSALEVGYSKHNNPYHNVVHAADVTQSSHFMLSQTGLANSLGDLELLAVLFGALIHDYEHTGHTNNFHIQSQSQFAMLYNDRSVLENHHVSSCFRLMKEDDKNILTHLTRDEYKELRNMVIEIVLATDMSTHFMQIKTMKSMLSLPEGIDKNKALCLIVHACDISHPAKPWNLHERWTEGVLEEFFRQGDLEASMGLPYSPLCDRHTVHVADSQIGFIDFIVEPTMVVCGELLVKMVEPLVSLPPTDSLFPPSVDGGDDKSPSNALSPLPDLRNSSTSPSSIRRIPLNYAGKLDIPTPWMKFLHENKAHWKERAAKEEEERKIKEAAEAEAAAKQVEENKENGVTTN	not soluble
MNRCILLALLPLISAIPVAVNIDDQDAVNLGAYDRARFDLVESFHPLQPASAVTNDQIAEVRAKAAGVRQNEASISIDLPTQMLSGSSGRIPERLAFGEWTEWTSWSMCQNGERSRVRTCVSRKPALRVVCHGDAIEIEKCYVDAGEGHIPVAADPWSIEREISGDFA	not soluble
MNRTKGDEEEYWNSSKFKAFTFDDEDDELSQLKESKRAVNSLRDFVDDDDDDDLERVSWSGEPVGSISWSIRETAGNSGSTHEGREQLKSRNSFSSYAQLPKPTSTYSLSSFFRGRTRPGSFQSLSDALSDTPAKSYAPELGRPKGEYRDYSNDWSPSDTVRRLRKGKVCSLERFRSLQDKLQLLEEAVSMHDGNVITAVLIFLKRTLSKEILFRELEVRQVALRHLIHFLKEIGDQKLLLDLFRFLDRTEELALSHYREHLNIQDPDKRKEFLKTCVGLPFSAEDSAHIQDHYTLLERQIIIEANDRHLESAGQTEIFRKHPRKASILNMPLVTTLFYSCFYHYTEAEGTFSSPVNLKKTFKIPDKQYVLTALAARAKLRAWNDVDALFTTKNWLGYTKKRAPIGFHRVVEILHKNNAPVQILQEYVNLVEDVDTKLNLATKFKCHDVVIDTYRDLKDRQQLLAYRSKVDKGSAEEEKIDALLSSSQIRWKN	soluble
MNRVDLSIFIPDSLTAETGDLKIKTYKVVLIARAASIFGVKRIVIYHDDADGEARFIRDILTYMDTPQYLRRKVFPIMRELKHVGILPPLRTPHHPTGKPVTGEYRQGLTVKRVKKGTLVDIGADKLALCREKLTVNRIMSFRVVRLGKEILIEPDEPEDRYWGYEVLDTRRNLAESLKTVGADVVVATSRNASPITSILDEVKTRMRGAREAAILFGGPYKGLPEIDADIWVNTLPGQCTETVRTEEAVLATLSVFNMLTQIDEKDE	soluble
